Here are results for three variants from IntAct's records for PubMed 16824542.

First the molecules themselves.
B1: SH2B adapter protein 2 (Rattus norvegicus (Rat)), Q9Z200 (parent)
chain: MNGATPGSAAAPAPVPDWRQFCELHAQVAAVDFAHKFCRFLRDNPTYDTPDAGTSFSRHFAANFLAVFSEEVRRVLGTAADTMEPEPAVTSVTSALKTATYGHSRSSEDVSAHVATKARVRKGFSLRNMSLCVVDGVRDLWHRRASPEPEGGATPKTTEPVSEPRDKWTRRLRLARTLAAKVELVDIQREGALRFMVADDAASGPGGTAQWQKCRLLLRRAVAGERFRLEFFVPPKASRPKVSIPLSAIIEVRTTMPLEMPEKDNTFVLKVENGAEYILETIDSLQKHSWVADIQGCVDPGDSEEDTGLSCARGGCLASRVTSCSCELLTEADMPRPPETMTAVGAVVTAPHGRARDTVGESLAHVPLETFLQTLESSGGVSESNNTGDEGAELDPDAEAELELSDYPWFHGTLSRVKAAQLVLAGGPRSHGLFVIRQSETRPGECVLTFNFQGKAKHLRLSLNGHGQCHVQHLWFQSVFDMLRHFHTHPIPLESGGSADITLRSYVRAQGPPPDPGPAPNTAAPVPACWTEPAGQHYFSSLATATCPPTSPSNGAGASSSSGSSSSATSVPPRPAEGPLSARSRSNSTEHLLEAASGATEEPADATLGRARAVENQYSFY

The variants in this assay derive from B1. The settings on record: with insr_human INSR.
On to R442A, for which the “effect of a mutation on the interaction” value is “decreasing interaction”.

As for R460A, the “effect of a mutation on the interaction” value is “disrupting interaction”.

With W475H, the “effect of a mutation on the interaction” value is reported as “decreasing interaction”.
